{"source": "patent US20260049134A1", "about": "(UNIVERSITY OF FLORIDA RESEARCH FOUNDATION, published 2026)", "key": {"[1]": {"target": "T1, ICAM1, endogenous in H929 multiple myeloma cells (human, UniProt P05362 28-532)", "T1 construct": "Native protein on H929 cells (flow cytometry, siRNA knockdown) and in H929 lysates (IP/MS); also called CD54", "T1 sequence (P05362 28-532 limits assumed)": "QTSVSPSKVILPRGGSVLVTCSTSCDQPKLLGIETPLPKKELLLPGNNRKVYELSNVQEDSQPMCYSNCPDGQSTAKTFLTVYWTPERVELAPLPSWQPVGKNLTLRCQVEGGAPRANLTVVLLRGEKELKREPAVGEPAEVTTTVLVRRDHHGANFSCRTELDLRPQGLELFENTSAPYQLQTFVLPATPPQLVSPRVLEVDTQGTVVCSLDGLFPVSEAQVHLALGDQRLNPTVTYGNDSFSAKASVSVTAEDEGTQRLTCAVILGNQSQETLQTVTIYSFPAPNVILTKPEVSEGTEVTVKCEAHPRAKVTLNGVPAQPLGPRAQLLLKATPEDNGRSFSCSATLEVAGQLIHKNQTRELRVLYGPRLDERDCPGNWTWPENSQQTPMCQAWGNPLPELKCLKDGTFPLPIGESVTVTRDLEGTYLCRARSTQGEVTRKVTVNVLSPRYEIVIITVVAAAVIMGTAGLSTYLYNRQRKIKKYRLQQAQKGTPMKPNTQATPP", "assay": "flow cytometry, H929 + vehicle; None 2.74"}, "[2]": {"target": "T1, ICAM1, endogenous in H929 multiple …", "assay": "flow cytometry, IgG1 on H929 cells", "summary_of_the_method": "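5×10⁴ cells stained 30 min on ice with IgG1 (0.1 to 50 μg/mL) then secondary antibody, with DAPI or SYTOX AADvanced viability stain, and read by flow cytometry. Alexa Fluor 647-labeled IgG1s used for single-step staining; for competition, unlabeled IgG1 at 60 μg/mL blocked 30 min before labeled antibody at 2 μg/mL for another 30 min.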"}, "[3]": {"target": "T2, GARS, endogenous in H929 multiple myeloma cells (human, UniProt P41250 37-739, limits assumed)", "T2 construct": "Native protein pulled down from H929 lysates; also called Glycyl-tRNA synthetase; GlyRS", "T2 sequence": "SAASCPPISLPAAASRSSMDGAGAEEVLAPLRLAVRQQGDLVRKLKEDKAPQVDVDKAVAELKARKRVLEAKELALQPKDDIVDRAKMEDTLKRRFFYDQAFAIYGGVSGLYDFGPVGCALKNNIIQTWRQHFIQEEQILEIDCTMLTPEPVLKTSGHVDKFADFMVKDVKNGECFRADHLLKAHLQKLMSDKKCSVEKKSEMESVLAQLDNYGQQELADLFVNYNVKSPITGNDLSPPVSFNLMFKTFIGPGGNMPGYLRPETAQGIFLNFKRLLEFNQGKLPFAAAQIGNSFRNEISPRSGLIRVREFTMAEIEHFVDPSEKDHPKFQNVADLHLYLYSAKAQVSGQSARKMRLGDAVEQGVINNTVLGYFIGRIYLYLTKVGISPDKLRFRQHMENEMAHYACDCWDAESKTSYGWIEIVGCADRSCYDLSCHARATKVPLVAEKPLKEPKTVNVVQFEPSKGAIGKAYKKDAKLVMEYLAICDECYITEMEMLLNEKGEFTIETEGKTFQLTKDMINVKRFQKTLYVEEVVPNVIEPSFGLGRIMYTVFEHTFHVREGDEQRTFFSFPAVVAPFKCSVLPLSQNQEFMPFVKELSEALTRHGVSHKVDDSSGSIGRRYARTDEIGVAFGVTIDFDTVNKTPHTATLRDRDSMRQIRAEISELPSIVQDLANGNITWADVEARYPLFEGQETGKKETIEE", "assay": "IP from H929 cell lysate, LC-MS/MS", "procedure": "Immunoprecipitation. […] After 30 min of rocking at 4° C., and lysates were centrifuged at 18,400×g for 20 min at 4° C. Subsequently, 1-mL aliquots of the supernatants were pre-cleared twice with Protein G agarose (Thermo Fisher Scientific) by adding 50 μL of 50% resin slurry and incubating 30 min with end-over-end tumbling at 4° C., followed by centrifugation at 16,000×g for 5 min and pooling of the pre-cleared cell lysate aliquots. Representative mAbs from each cluster were immobilized on Protein G agarose at a ratio of 25 μg IgG1 per 30 μL of 50% slurry, diluted to 500 μL with Dulbecco's PBS (DPBS) and incubated for 1 h at 4° C. with tumbling, followed by centrifugation at 5,000×g for 30 s and 2 washes with lysis buffer. After the last wash, the ˜15 μL of IgG1-coated resin was blocked with 10 μL of 10% BSA (MilliporeSigma). Next, 1 mL of the pooled pre-cleared cell lysate was added to the IgG1-coated resin and incubated for 3 h at 4° C. with tumbling. […] Finally, 16 μL of the eluate (˜20%) was analyzed on a reducing SDS-PAGE gel stained with SYPRO Ruby dye (Bio-Rad Laboratories), while the rest was stored at −80° C. prior to LC-MS/MS analysis. […]"}, "[4]": {"target": "T3, CADM1, endogenous in H929 multiple myeloma cells (human, UniProt Q9BY67 45-442)", "T3 construct": "Native protein on H929 cells (flow cytometry, siRNA knockdown) and in H929 lysates (IP/MS); RPMI-8226 cells were used for sorting with HW-97; also called IGSF4A", "T3 sequence": "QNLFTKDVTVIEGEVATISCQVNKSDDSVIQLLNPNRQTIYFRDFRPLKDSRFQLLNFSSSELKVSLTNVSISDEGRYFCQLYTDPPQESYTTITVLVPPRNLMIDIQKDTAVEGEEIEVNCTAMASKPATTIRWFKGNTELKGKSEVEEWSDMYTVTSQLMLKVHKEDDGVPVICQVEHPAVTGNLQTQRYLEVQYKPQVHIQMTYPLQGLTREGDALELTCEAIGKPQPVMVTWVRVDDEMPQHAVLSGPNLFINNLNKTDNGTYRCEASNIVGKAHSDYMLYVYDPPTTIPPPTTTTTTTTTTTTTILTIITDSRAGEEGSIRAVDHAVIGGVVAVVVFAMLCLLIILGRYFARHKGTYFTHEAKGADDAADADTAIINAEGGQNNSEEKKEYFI", "assay": "flow cytometry, H929 + PTPRG siRNA; None 2.13"}}}
{"binder": "TH9-0022 (antibody, human IgG1, kappa, L234A L235A, V domains shown, also called TH9-022; negative control) VH: QSLEESGGRLVTPGTPLTLTCTVSGFSLSSYAMNWVRQAPGKGLEWIGIINSYGSTYYASWAKGRFTISKTSTTVDLKITSPTTEDTATYFCARVTYDSYGYGYAPYGMDLWGPGTLVTVSS VL: LVMTQTPSSTSNAVGGTVTIKCQASQSIGNVLAWYQQKPGQPPKLLIYAASTLASGVPSRVGGSRSGTEYTLTISGVQREDAATYYCLGSDSDSDIAFGGGTELEILR", "values": [{"measurement": "Cells stained (%)", "setting": "[1]", "value": 2.62, "unit": "%"}]}
{"binder": "TH9-0022 (antibody, human IgG1, kappa, L234A L235A, V domains shown, also called TH9-022; negative control IgG1) VH: QSLEESGGRLVTPGTPLTLTCTVSGFSLSSYAMNWVRQAPGKGLEWIGIINSYGSTYYASWAKGRFTISKTSTTVDLKITSPTTEDTATYFCARVTYDSYGYGYAPYGMDLWGPGTLVTVSS VL: LVMTQTPSSTSNAVGGTVTIKCQASQSIGNVLAWYQQKPGQPPKLLIYAASTLASGVPSRVGGSRSGTEYTLTISGVQREDAATYYCLGSDSDSDIAFGGGTELEILR", "values": [{"measurement": "antibody-bound positive cells (%)", "setting": "[2]", "value": 2.7, "unit": "%"}, {"measurement": "binding result", "setting": "[3]", "value": "no binding"}]}
{"binder": "HW-1 chimeric rabbit-human IgG1 LA/LA/PG (antibody, V domains shown, Fc-silenced (L234A/L235A/P329G) IgG1, lambda; Alexa Fluor 647-labeled in single-step flow cytometry; Prototype of cluster C-1) VH: QSLEESGGGLFKPTDTLTLTCTASGFSLGSSYAISWVRQAPGKELEWIGTIDSGRAYYARWAKSRSTITRNTNENTVTLKMTSLTAADTATYFCARDLIPTYSQDIWGPGTLVTISS VL: SFVLTQPASVQVNLGQTVSLTCTADTLSRRYASWYQQKPGQAPVLLIYRDTSRPSGVPDRFSGSSSGNTATLTISGAQAGDEADYYCATSDGSGNSYQYVFGGGTQLTVTS", "values": [{"measurement": "binding result", "setting": "[3]", "value": "no binding"}]}
{"binder": "HW-101 chimeric rabbit-human IgG1 LA/LA/PG (antibody, V domains shown, Fc-silenced (L234A/L235A/P329G) IgG1, lambda; Alexa Fluor 647-labeled in single-step flow cytometry; Cluster C-97) VH: QEQLVESGGRLVTPGTPLTLTCKASGFSLGKYDMSWVRQAPGKGLEWIGTIYAGSGSTWYASWAKGRFTISKTSTTVDLKMTSLTTEDTATYFCARDFLGVNSIWGPGTLVTISS VL: SFVLTQPASVQVNLGQTVSLTCTADTLSRSYASWYQQKPDQAPVLLIHRDTSRPSGVPDRFSGSNSGNTATLTISGAQAGDEADYYCATSDGSGSNFHFVFGGGTQLTVTG", "values": [{"measurement": "Cells stained (%)", "setting": "[4]", "value": 85.3, "unit": "%"}]}
{"binder": "HW-113 chimeric rabbit-human IgG1 LA/LA/PG (antibody, V domains shown, Fc-silenced (L234A/L235A/P329G) IgG1, lambda; Alexa Fluor 647-labeled in single-step flow cytometry) VH: QKQLVESGGGLVQPGGSLTLTCTVSGFSLNKYYMGWFRQAPGKGLEWIGVISRSGDTYYSSWAKGRFTISKASTTVDLRITSPTTEDTATYFCARDASSPGFHGDRLDLWGQGTLVTVSS VL: SFVLTQPASVQVNLGQTVSLTCTADTLSRSYASWYQQKPGQAPVLLIYRDTSRPSGVPDRFSGSSSGNTATLTISGAQAGDEADYYCATSDGIGSNYLWVFGGGTQLTVTG", "values": [{"measurement": "antibody-bound positive cells (%)", "setting": "[2]", "value": 95.8, "unit": "%"}, {"measurement": "Cells stained (%)", "setting": "[1]", "value": 99.8, "unit": "%"}]}
{"binder": "HW-97 chimeric rabbit-human IgG1 LA/LA/PG (antibody, V domains shown, Fc-silenced (L234A/L235A/P329G) IgG1, lambda; Alexa Fluor 647-labeled in single-step flow cytometry; Prototype of cluster C-97) VH: QKQLVESGGRLVTPGTPLTLTCTVTGIDLSSHGMSWVRQAPGKGLEWIGVIYPSGSTWYASWARGRFTISKTSTTVDLKMTSLTTEDTATHFCARGDVGGADNNIWGPGTLVTVSS VL: SFVLTQPASVQVDLGQTVSLTCTAETLSRSYASWYQQKPGQAPVLLIYRDTSRPSGVPDRFSGSSSGNTATLTISGAQAGDEADYYCATSDGSGSSYQYVFGGGTQLTVTG", "values": [{"measurement": "Cells stained (%)", "setting": "[4]", "value": 94.8, "unit": "%"}]}
